The record followed here is PMC10914628 (Nature Chemistry, 2024).

The stoichiometry N is a count of units in the complex or per binding partner.

The data set concerns the molecule itself. Description: SEC; apo state; Superdex 200 in crosslinking buffer (20 mM HEPES pH 7.2, 250 mM KCl, 5 mM EDTA), before and after cross-linking.

B1: p97-ND1L-ΔCys-F360C-A413C (domain or fragment)
chain: not shown
modifications: C360 and C413 joined between subunits by bismaleimidoethane (BMOE) in the cross-linked sample
notes: human p97 (VCP), UniProt P55072, residues 1-480; ΔCys: C69V-C77V-C105A-C174A-C184W-C209V-C415A, plus F360C and A413C; also called cysteine-free p97 variant with F360C and A413C; source: E. coli BL21(DE3), purified (Ni-NTA, TEV cleavage, SEC on Superdex 200; apyrase digestion); reduced with DTT and gel-filtered before cross-linking; not shown: His6, N-terminal, cleaved
Regarding B1, the “stoichiometry N” value stood at 6.
